Source: US20250145694A1 (GUANGDONG FEIPENG BIOLOGICAL, published 2025)

How the values were obtained:
[1] = biological target: T1, CTNI quality control recombinant antigen (human, UniProt P19429 1-210, limits assumed); test: indirect ELISA, cTnI coated 1 ug/ml, antibody 0.457 ng/ml
T1 construct: Recombinant antigen produced by the applicant; also called CTNI quality control recombinant protein (antigen produced by the company); cardiac troponin I
Description: (§1) CTNI quality control recombinant antigen was diluted to 1 μg/ml with a coating solution and coated a microplate, 100 μL per well, overnight at 4° C.; on the next day, the microplate was washed with a washing solution twice and patted dry; a blocking solution (20% of BSA+80% of PBS) was added, 120 μL per well, 37° C., 1 h, patted dry; the diluted cTnI monoclonal antibodies were added, 100 μL/well, 37° C., 30 min; the microplate was washed with a washing solution 5 times, patted dry; goat anti-mouse IgG-HRP, 100 μL per well, 37° C., 30 min; the microplate was washed with a washing solution 5 times, patted dry; a color-developing solution A (50 μL/well) was added, a color-developing solution B (50 μL/well) was added, 10 min; a stop solution was added, 50 μL/well; OD values were read on microplate reader at 450 nm (reference, 630 nm).

[2] = biological target: T1, CTNI quality control recombinant antigen; test: indirect ELISA, cTnI coated 1 ug/ml, antibody 0.152 ng/ml
Description: as §1

[3] = biological target: T1, CTNI quality control recombinant antigen; test: indirect ELISA, cTnI coated 1 ug/ml, antibody 0 ng/ml (blank)
Description: as §1

[4] = biological target: T1, CTNI quality control recombinant antigen; test: indirect ELISA, cTnI coated 1 ug/ml, antibody 12.346 ng/ml
Description: as §1

[5] = biological target: T1, CTNI quality control recombinant antigen; test: indirect ELISA, cTnI coated 1 ug/ml, antibody 1.372 ng/ml
Description: as §1

[6] = biological target: T1, CTNI quality control recombinant antigen; test: BLI, antibody on AMC sensor, cTnI in solution
Description: With an AMC sensor, the purified antibody was diluted to 10 μg/ml with PBST, and CTNI quality control recombinant protein (antigen produced by the company) was gradient diluted with PBST to 769.2 nmol/ml, 384.6 nmol/ml, 192.3 nmol/ml, 96.2 nmol/ml, 48.1 nmol/ml, 24 nmol/ml, 12 nmol/ml, and 0 nmol/ml.

[7] = biological target: T1, CTNI quality control recombinant antigen; test: indirect ELISA, cTnI coated 1 ug/ml, antibody 0.051 ng/ml
Description: as §1

[8] = biological target: T1, CTNI quality control recombinant antigen; test: indirect ELISA, cTnI coated 1 ug/ml, antibody 4.115 ng/ml
Description: as §1

T1 sequence (P19429 whole entry): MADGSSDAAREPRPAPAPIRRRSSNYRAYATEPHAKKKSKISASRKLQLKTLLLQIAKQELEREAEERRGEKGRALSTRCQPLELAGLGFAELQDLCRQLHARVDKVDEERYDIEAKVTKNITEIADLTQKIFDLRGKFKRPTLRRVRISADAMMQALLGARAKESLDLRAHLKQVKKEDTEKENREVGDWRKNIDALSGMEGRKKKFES

| Binder | OD450 (reference 630 nm) [1] | OD450 (reference 630 nm) [2] | OD450 (reference 630 nm) [3] | OD450 (reference 630 nm) [4] | OD450 (reference 630 nm) [5] | Kd [6] | koff [6] | kon [6] | OD450 (reference 630 nm) [7] | OD450 (reference 630 nm) [8] |
| --- | --- | --- | --- | --- | --- | --- | --- | --- | --- | --- |
| Anti-cTnI 8C4 recombinant antibody (WT) (antibody, mouse IgG1, kappa, Mouse antibody expressed in CHO cells; also called CTNI 8C4 antibody) heavy: EVQMVESGGGLLKPGGSLKLSCAASGFTYSNYAMSWVRQTPEKRLEWVATISTGGSYSYYPDSVKGRFTISRDNAKNTLYLQMLSLRSEDTAMYYCARKDNYYGSTFMDYWGQGSSVTVSSAKTTPPSVYPLAPGSAAQTNSMVTLGCLVKGYFPEPVTVTWNSGSLSSGVHTFPAVLQSDLYTLSSSVTVPSSTWPSQTVTCNVAHPASSTKVDKKIVPRDCGCKPCICTVPEVSSVFIFPPKPKDVLTITLTPKVTCVVVDISKDDPEVQFSWFVDDVEVHTAQTKPREEQFNSTFRSVSELPIMHQDWLNGKEFKCRVNSAAFPAPIEKTISKTKGRPKAPQVYTIPPPKEQMAKDKVSLTCMITNFFPEDITVEWQWNGQPAENYKNTQPIMDTDGSYFVYSKLNVQKSNWEAGNTFTCSVLHEGLHNHHTEKSLSHSPG light: DIQMTQTSSSLSASLGDRVTISCRASQDITQYLNWYQQKPDGTIKLLIYYSSRIHSGVSSRFSGSGSGTDYSLTISNLEQEDIATYFCQQGNTIPLTFDTGTKLELKRADAAPTVSIFPPSSEQLTSGGASVVCFLNNFYPKDINVKWKIDGSERQNGVLNSWTDQDSKDSTYSMSSTLTLTKDEYERHNSYTCEATHKTSTSPIVKSFNRNEC | 0.086 OD | 0.053 OD | 0.031 OD | 1.18 OD | 0.194 OD | 21.6 nM | 0.000169 s⁻¹ | 7830 M⁻¹ s⁻¹ | 0.04 OD | 0.435 OD |
| Mutation 3 (antibody, assembled FR/CDR/constant) heavy: EVQMVESGGGLLKPGGSLKLSCAASGFTYSNYAMSWVRQTPEKRLEWVATISSGGSYSYYPDSVKGRFTISRDNAKNTLYLQMLSLRSEDTAMYYCARKDNYYGSTFMDYWGQGSSVTVSSAKTTPPSVYPLAPGSAAQTNSMVTLGCLVKGYFPEPVTVTWNSGSLSSGVHTFPAVLQSDLYTLSSSVTVPSSTWPSQTVTCNVAHPASSTKVDKKIVPRDCGCKPCICTVPEVSSVFIFPPKPKDVLTITLTPKVTCVVVDISKDDPEVQFSWFVDDVEVHTAQTKPREEQFNSTFRSVSELPIMHQDWLNGKEFKCRVNSAAFPAPIEKTISKTKGRPKAPQVYTIPPPKEQMAKDKVSLTCMITNFFPEDITVEWQWNGQPAENYKNTQPIMDTDGSYFVYSKLNVQKSNWEAGNTFTCSVLHEGLHNHHTEKSLSHSPG light: DIQMTQTSSSLSASLGDRVTISCRASQDITNYLNWYQQKPDGTIKLLIYYSSRIHSGVSSRFSGSGSGTDYSLTISNLEQEDIATYFCQQGNTIPLTFDTGTKLELKRADAAPTVSIFPPSSEQLTSGGASVVCFLNNFYPKDINVKWKIDGSERQNGVLNSWTDQDSKDSTYSMSSTLTLTKDEYERHNSYTCEATHKTSTSPIVKSFNRNEC | 0.172 OD | 0.068 OD | 0.011 OD | 1.78 OD | 0.479 OD |  |  |  | 0.049 OD | 1.04 OD |

Now from value to binder:

| OD450 (reference 630 nm) [1] | OD450 (reference 630 nm) [2] | OD450 (reference 630 nm) [3] | OD450 (reference 630 nm) [4] | OD450 (reference 630 nm) [5] | Kd [6] | koff [6] | kon [6] | OD450 (reference 630 nm) [7] | OD450 (reference 630 nm) [8] | Binder |
| --- | --- | --- | --- | --- | --- | --- | --- | --- | --- | --- |
| 0.307 OD | 0.129 OD | 0.039 OD | 2.02 OD | 0.785 OD | 7.04 nM | 0.000583 s⁻¹ | 82800 M⁻¹ s⁻¹ | 0.088 OD | 1.6 OD | Mutation 1 (antibody) heavy: EVQMVESGGGLLKPGGSLKLSCAASGFTYSNYAMSWVRQTPEKRLEWVATISSGGSYSYYPDSVKGRFTISRDNAKNTLYLQMLSLRSEDTAMYYCARRDNYYGSTFMDYWGQGSSVTVSSAKTTPPSVYPLAPGSAAQTNSMVTLGCLVKGYFPEPVTVTWNSGSLSSGVHTFPAVLQSDLYTLSSSVTVPSSTWPSQTVTCNVAHPASSTKVDKKIVPRDCGCKPCICTVPEVSSVFIFPPKPKDVLTITLTPKVTCVVVDISKDDPEVQFSWFVDDVEVHTAQTKPREEQFNSTFRSVSELPIMHQDWLNGKEFKCRVNSAAFPAPIEKTISKTKGRPKAPQVYTIPPPKEQMAKDKVSLTCMITNFFPEDITVEWQWNGQPAENYKNTQPIMDTDGSYFVYSKLNVQKSNWEAGNTFTCSVLHEGLHNHHTEKSLSHSPG light: DIQMTQTSSSLSASLGDRVTISCRASQDITNYLNWYQQKPDGTIKLLIYYTSRIHSGVSSRFSGSGSGTDYSLTISNLEQEDIATYFCQQGNTIPLTFDTGTKLELKRADAAPTVSIFPPSSEQLTSGGASVVCFLNNFYPKDINVKWKIDGSERQNGVLNSWTDQDSKDSTYSMSSTLTLTKDEYERHNSYTCEATHKTSTSPIVKSFNRNEC |
| 0.098 OD | 0.069 OD | 0.029 OD | 1.21 OD | 0.208 OD |  |  |  | 0.061 OD | 0.456 OD | Mutation 4 (antibody, light chain unchanged from WT; heavy chain assembled FR/CDR/constant) heavy: EVQMVESGGGLLKPGGSLKLSCAASGFTYSNYAMSWVRQTPEKRLEWVATISSGGSYSYYPDSVKGRFTISRDNAKNTLYLQMLSLRSEDTAMYYCARKDNYYGSTFMDYWGQGSSVTVSSAKTTPPSVYPLAPGSAAQTNSMVTLGCLVKGYFPEPVTVTWNSGSLSSGVHTFPAVLQSDLYTLSSSVTVPSSTWPSQTVTCNVAHPASSTKVDKKIVPRDCGCKPCICTVPEVSSVFIFPPKPKDVLTITLTPKVTCVVVDISKDDPEVQFSWFVDDVEVHTAQTKPREEQFNSTFRSVSELPIMHQDWLNGKEFKCRVNSAAFPAPIEKTISKTKGRPKAPQVYTIPPPKEQMAKDKVSLTCMITNFFPEDITVEWQWNGQPAENYKNTQPIMDTDGSYFVYSKLNVQKSNWEAGNTFTCSVLHEGLHNHHTEKSLSHSPG light: DIQMTQTSSSLSASLGDRVTISCRASQDITQYLNWYQQKPDGTIKLLIYYSSRIHSGVSSRFSGSGSGTDYSLTISNLEQEDIATYFCQQGNTIPLTFDTGTKLELKRADAAPTVSIFPPSSEQLTSGGASVVCFLNNFYPKDINVKWKIDGSERQNGVLNSWTDQDSKDSTYSMSSTLTLTKDEYERHNSYTCEATHKTSTSPIVKSFNRNEC |
| 0.098 OD | 0.072 OD | 0.03 OD | 1.32 OD | 0.214 OD |  |  |  | 0.054 OD | 0.569 OD | Mutation 5 (antibody, light chain unchanged from WT; heavy chain assembled FR/CDR/constant) heavy: EVQMVESGGGLLKPGGSLKLSCAASGFTYSNYAMSWVRQTPEKRLEWVATISTGGSYSYYPDSVKGRFTISRDNAKNTLYLQMLSLRSEDTAMYYCARRDNYYGSTFMDYWGQGSSVTVSSAKTTPPSVYPLAPGSAAQTNSMVTLGCLVKGYFPEPVTVTWNSGSLSSGVHTFPAVLQSDLYTLSSSVTVPSSTWPSQTVTCNVAHPASSTKVDKKIVPRDCGCKPCICTVPEVSSVFIFPPKPKDVLTITLTPKVTCVVVDISKDDPEVQFSWFVDDVEVHTAQTKPREEQFNSTFRSVSELPIMHQDWLNGKEFKCRVNSAAFPAPIEKTISKTKGRPKAPQVYTIPPPKEQMAKDKVSLTCMITNFFPEDITVEWQWNGQPAENYKNTQPIMDTDGSYFVYSKLNVQKSNWEAGNTFTCSVLHEGLHNHHTEKSLSHSPG light: DIQMTQTSSSLSASLGDRVTISCRASQDITQYLNWYQQKPDGTIKLLIYYSSRIHSGVSSRFSGSGSGTDYSLTISNLEQEDIATYFCQQGNTIPLTFDTGTKLELKRADAAPTVSIFPPSSEQLTSGGASVVCFLNNFYPKDINVKWKIDGSERQNGVLNSWTDQDSKDSTYSMSSTLTLTKDEYERHNSYTCEATHKTSTSPIVKSFNRNEC |
